Measurements: publication PMC8387365
pKd: −log10 of the molar value.

Key:
PRC1(1-486) = PRC1(1-486) (UniProt O43663); test: BLI
[1] = target: full-length PRC1 (Protein Regulator of Cytokinesis-1) (UniProt O43663); test: BLI
[2] = target: microtubules polymerised from tubulin; test: TIRF microscopy, GFP intensity on immobilised microtubules
Sequence of microtubules polymerised from tubulin (P68363 whole entry, chain 1 of 2): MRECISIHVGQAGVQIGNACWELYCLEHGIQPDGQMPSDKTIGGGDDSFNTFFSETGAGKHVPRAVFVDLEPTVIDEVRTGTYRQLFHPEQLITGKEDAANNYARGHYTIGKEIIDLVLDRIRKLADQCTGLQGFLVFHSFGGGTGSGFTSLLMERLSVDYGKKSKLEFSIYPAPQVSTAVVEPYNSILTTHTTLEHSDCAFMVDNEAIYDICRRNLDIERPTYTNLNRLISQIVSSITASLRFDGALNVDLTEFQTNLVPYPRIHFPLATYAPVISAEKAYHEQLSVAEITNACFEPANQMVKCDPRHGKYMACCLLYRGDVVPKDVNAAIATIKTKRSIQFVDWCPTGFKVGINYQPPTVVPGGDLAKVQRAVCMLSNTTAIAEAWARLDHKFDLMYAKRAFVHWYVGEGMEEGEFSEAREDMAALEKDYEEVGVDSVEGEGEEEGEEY
Sequence of microtubules polymerised from tubulin (A8K068 whole entry, chain 2 of 2, further chain): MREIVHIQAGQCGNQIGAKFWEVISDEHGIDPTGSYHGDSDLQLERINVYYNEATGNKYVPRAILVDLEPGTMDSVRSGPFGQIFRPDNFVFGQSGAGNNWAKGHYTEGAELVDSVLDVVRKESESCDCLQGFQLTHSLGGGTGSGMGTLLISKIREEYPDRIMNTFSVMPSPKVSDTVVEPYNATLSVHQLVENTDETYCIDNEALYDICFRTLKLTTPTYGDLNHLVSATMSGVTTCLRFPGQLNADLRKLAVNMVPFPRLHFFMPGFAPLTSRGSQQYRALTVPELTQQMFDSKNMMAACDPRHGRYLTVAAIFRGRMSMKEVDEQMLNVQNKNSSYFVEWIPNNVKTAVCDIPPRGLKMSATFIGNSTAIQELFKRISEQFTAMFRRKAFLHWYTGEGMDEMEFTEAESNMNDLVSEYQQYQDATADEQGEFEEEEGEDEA

Sequence of PRC1(1-486) (O43663 1-486): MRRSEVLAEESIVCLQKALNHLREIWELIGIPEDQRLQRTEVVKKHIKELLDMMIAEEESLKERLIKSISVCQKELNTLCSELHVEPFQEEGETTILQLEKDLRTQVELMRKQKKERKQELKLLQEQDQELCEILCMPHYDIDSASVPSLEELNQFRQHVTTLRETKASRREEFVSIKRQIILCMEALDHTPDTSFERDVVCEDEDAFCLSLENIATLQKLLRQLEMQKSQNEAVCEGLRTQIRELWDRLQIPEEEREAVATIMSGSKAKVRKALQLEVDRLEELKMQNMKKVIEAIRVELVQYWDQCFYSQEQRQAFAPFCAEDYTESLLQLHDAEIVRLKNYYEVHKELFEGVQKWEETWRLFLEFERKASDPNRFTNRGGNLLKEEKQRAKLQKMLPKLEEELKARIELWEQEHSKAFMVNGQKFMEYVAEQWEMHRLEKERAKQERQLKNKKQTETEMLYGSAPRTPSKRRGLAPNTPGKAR
Sequence of full-length PRC1 (Protein Regulator of Cytokinesis-1) (O43663 whole entry): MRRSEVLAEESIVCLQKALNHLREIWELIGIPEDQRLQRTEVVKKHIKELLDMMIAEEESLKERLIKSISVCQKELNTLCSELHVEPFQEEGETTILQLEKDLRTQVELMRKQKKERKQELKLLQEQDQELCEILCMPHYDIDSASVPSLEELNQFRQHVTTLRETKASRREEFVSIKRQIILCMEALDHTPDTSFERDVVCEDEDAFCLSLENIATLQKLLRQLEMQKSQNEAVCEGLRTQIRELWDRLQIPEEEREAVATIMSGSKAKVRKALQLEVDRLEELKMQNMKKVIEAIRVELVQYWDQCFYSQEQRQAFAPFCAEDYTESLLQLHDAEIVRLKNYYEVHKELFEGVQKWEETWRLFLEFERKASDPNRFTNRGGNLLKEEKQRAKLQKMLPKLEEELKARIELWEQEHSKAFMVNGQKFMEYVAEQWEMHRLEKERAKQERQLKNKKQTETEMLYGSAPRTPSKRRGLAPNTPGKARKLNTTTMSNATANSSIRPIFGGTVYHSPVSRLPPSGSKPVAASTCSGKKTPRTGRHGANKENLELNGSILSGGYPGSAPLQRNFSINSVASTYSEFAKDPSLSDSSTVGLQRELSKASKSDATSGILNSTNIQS

Row | pKd (PRC1(1-486)) | pKd [1] | Substance | GFP intensity per pixel at 8 nM [2] | GFP intensity per pixel at 40 nM [2] | GFP intensity per pixel at 60 nM [2] | GFP intensity per pixel at 80 nM [2] | GFP intensity per pixel at 160 nM [2] | GFP intensity per pixel at 400 nM [2] | GFP intensity per pixel at 800 nM [2]
1 | 5.98 | 5.92 | CLASP1(654-1471)-GFP (domain or fragment) |  |  |  |  |  |  | 
2 |  |  | full-length CLASP1-GFP (natural protein) | 26.9 | 95.3 | 109 | 400 | 398 | 754 | 854
